Test results published in patent US8129197B2, “Cholesterol loaded insect cell membranes as test proteins” (SOLVO Biotechnológial ZRT., priority 2006, dated 2012).

What was measured:
[1] = biological target: T1, mouseBsep (Mus musculus, UniProt Q9QY30); experiment: Vanadate sensitive ATPase assay, mouseBsep Sf9 membrane vesicles; type: biochemical; set-up: made in house; host or cells: baculovirus infected Sf9 (Spodoptera frugiperda) cells
T1 sequence (Q9QY30 1-1321): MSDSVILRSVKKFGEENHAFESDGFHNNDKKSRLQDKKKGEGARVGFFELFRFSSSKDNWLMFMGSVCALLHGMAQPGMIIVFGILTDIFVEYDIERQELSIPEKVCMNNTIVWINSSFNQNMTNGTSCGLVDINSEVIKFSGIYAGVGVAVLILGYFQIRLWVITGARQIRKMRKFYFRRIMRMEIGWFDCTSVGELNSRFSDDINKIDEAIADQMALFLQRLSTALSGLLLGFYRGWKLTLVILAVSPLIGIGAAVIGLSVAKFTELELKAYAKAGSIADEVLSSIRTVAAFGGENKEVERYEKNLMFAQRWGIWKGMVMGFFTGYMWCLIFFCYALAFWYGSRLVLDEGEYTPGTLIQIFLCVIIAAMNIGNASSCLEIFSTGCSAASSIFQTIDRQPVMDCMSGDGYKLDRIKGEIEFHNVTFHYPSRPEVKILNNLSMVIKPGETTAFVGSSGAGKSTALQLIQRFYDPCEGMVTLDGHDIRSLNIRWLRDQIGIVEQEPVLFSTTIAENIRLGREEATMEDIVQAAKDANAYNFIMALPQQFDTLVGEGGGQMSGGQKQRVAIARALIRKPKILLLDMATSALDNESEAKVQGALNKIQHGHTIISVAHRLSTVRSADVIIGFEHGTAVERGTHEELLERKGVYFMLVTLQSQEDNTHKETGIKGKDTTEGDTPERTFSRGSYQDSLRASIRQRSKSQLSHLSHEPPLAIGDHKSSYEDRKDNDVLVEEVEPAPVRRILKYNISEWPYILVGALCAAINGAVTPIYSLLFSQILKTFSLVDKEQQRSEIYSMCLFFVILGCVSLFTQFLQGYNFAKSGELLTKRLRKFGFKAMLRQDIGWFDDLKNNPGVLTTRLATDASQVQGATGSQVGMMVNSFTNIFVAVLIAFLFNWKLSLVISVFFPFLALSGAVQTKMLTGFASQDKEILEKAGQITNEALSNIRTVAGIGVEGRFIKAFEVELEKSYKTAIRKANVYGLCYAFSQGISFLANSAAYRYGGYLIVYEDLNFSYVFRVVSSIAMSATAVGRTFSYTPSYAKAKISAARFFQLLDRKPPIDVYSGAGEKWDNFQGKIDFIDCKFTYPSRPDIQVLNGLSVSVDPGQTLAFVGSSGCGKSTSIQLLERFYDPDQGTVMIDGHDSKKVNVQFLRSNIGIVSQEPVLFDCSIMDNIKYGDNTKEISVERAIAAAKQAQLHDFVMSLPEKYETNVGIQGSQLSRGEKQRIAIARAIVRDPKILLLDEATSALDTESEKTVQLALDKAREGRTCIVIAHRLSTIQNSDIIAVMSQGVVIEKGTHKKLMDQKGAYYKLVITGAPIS
Excerpt: The samples treated with cholesterol@RAMEB complex were compared with untreated vesicles.

[2] = substrate: C[C@H](CCC(=O)NCCS(=O)(=O)O)[C@H]1CC[C@H]2[C@@H]3[C@H](O)C[C@@H]4C[C@H](O)CC[C@]4(C)[C@H]3C[C@H](O)[C@]12C; experiment: cells, lysate or membranes named

`C[C@H](CCC(=O)NCCS(=O)(=O)O)[C@H]1CC[C@H]2[C@@H]3[C@H](O)C[C@@H]4C[C@H](O)CC[C@]4(C)[C@H]3CC[C@]12C` [taurochenodeoxycholate] was tested, and the “Vanadate sensitive ATPase activity in the presence of the substrate” value ([1]; cholesterol loaded mouseBsep vesicles, basal 4.7) was 39 nmol Pi/mg prot/min and the “Vanadate sensitive ATPase activity in the presence of the substrate” value ([1]; untreated mouseBsep vesicles, basal 37) was 64 nmol Pi/mg prot/min.

B1: mouseBsep (Mus musculus) (protein)
chain: T1 sequence (Q9QY30 1-1321)
Molecule B1 has a Km ([2]; other: mouseBsep-Sf9 CTRL) of 6.798 µM.

B2: humanBSEP (Homo sapiens) (protein)
chain: MSDSVILRSIKKFGEENDGFESDKSYNNDKKSRLQDEKKGDGVRVGFFQLFRFSSSTDIWLMFVGSLCAFLHGIAQPGVLLIFGTMTDVFIDYDVELQELQIPGKACVNNTIVWTNSSLNQNMTNGTRCGLLNIESEMIKFASYYAGIAVAVLITGYIQICFWVIAAARQIQKMRKFYFRRIMRMEIGWFDCNSVGELNTRFSDDINKINDAIADQMALFIQRMTSTICGFLLGFFRGWKLTLVIISVSPLIGIGAATIGLSVSKFTDYELKAYAKAGVVADEVISSMRTVAAFGGEKREVERYEKNLVFAQRWGIRKGIVMGFFTGFVWCLIFLCYALAFWYGSTLVLDEGEYTPGTLVQIFLSVIVGALNLGNASPCLEAFATGRAAATSIFETIDRKPIIDCMSEDGYKLDRIKGEIEFHNVTFHYPSRPEVKILNDLNMVIKPGEMTALVGPSGAGKSTALQLIQRFYDPCEGMVTVDGHDIRSLNIQWLRDQIGIVEQEPVLFSTTIAENIRYGREDATMEDIVQAAKEANAYNFIMDLPQQFDTLVGEGGGQMSGGQKQRVAIARALIRNPKILLLDMATSALDNESEAMVQEVLSKIQHGHTIISVAHRLSTVRAADTIIGFEHGTAVERGTHEELLERKGVYFTLVTLQSQGNQALNEEDIKDATEDDMLARTFSRGSYQDSLRASIRQRSKSQLSYLVHEPPLAVVDHKSTYEEDRKDKDIPVQEEVEPAPVRRILKFSAPEWPYMLVGSVGAAVNGTVTPLYAFLFSQILGTFSIPDKEEQRSQINGVCLLFVAMGCVSLFTQFLQGYAFAKSGELLTKRLRKFGFRAMLGQDIAWFDDLRNSPGALTTRLATDASQVQGAAGSQIGMIVNSFTNVTVAMIIAFSFSWKLSLVILCFFPFLALSGATQTRMLTGFASRDKQALEMVGQITNEALSNIRTVAGIGKERRFIEALETELEKPFKTAIQKANIYGFCFAFAQCIMFIANSASYRYGGYLISNEGLHFSYVFRVISAVVLSATALGRAFSYTPSYAKAKISAARFFQLLDRQPPISVYNTAGEKWDNFQGKIDFVDCKFTYPSRPDSQVLNGLSVSISPGQTLAFVGSSGCGKSTSIQLLERFYDPDQGKVMIDGHDSKKVNVQFLRSNIGIVSQEPVLFACSIMDNIKYGDNTKEIPMERVIAAAKQAQLHDFVMSLPEKYETNVGSQGSQLSRGEKQRIAIARAIVRDPKILLLDEATSALDTESEKTVQVALDKAREGRTCIVIAHRLSTIQNADIIAVMAQGVVIEKGTHEELMAQKGAYYKLVTTGSPIS
B2 showed a Km ([2]; other: humanBSEP-Sf9 CTRL) of 15.03 µM.

B3: ratBsep (Rattus norvegicus) (protein)
chain: MSDSVILRSVKKFGEENHAFESDGSHNNDKKSRLQDKMKEGDIRVGFFELFRFSSSKDIWLMLMGGVCALLHGMAQPGILIIFGIMTDIFIKYDIERQELEIPGKACVNNTIVWINSSFHQNMTNGTVCGLVDIESEMIKFSGIYAGVGMTVLILGYFQIRLWVITGARQIRRMRKIYFRRIMRMEIGWFDCTSVGELNSRFADDIEKINDAIADQLAHFLQRMSTAMCGLLLGFYRGWKLTLVILAVSPLIGIGAAVIGLSIAKFTELELKAYAKAGSIADEVLSSIRTVAAFGGENKEVERYEKNLVFAQRWGIWKGMVMGFFTGYMWCLIFFCYALAFWYGSTLVLDEEEYTPGTLVQIFLCVILAAMNIGHASSCLEIFSTGCSAATNIFQTIDRQPVIDCMSGDGYKLDRIKGEIEFHNVTFHYPSRPDVKILDNLSMVIKPGETTALVGSSGAGKSTALQLIQRFYDPCEGMVTLDGHDIRSLNIRWLRDQIGIVEQEPVLFSTTIAENIRFGREDATMEDIVQAAKDANAYNFIMALPQQFDTLVGEGGGQMSGGQKQRVAIARALIRNPKILLLDMATSALDNESEARVQEALNKIQHGHTIISVAHRLSTVRAADVIIGFEHGVAVERGTHEELLERKGVYFMLVTLQSQGDNAHKETSIMGKDATEGGTLERTFSRGSYRDSLRASIRQRSKSQLSLLTHDPPLAVADHKSSYKDSKDNDVLVEEVEPAPVRRILKYNIPEWHYILVGSLSAAINGAVTPIYSLLFSQLLGTFSLLDKEQQRSEIHSMCLFFVILGCVSIFTQFLQGYTFAKSGELLTKRLRKFGFKAMLGQDIGWFDDLRNNPGVLTTRLATDASQVQGATGSQVGMMVNSFTNIIAALLIAFFFSWKLSLIITIFFPFLALSGAVQTKMLTGFASQDKQALEKAGQITSEALSNIRTVAGIGVEGRFIKAFEVELQTSYKTAVRKANIYGLCFAFSQGIAFLANSAAYRYGGYLIAYEGLGFSHVFRVVSSVALSATAVGRTFSYTPSYAKAKISAARFFQLLDRKPPINVYSEAGEKWDNFQGKIDFIDCKFTYPSRPDIQVLNGLSVSVNPGQTLAFVGSSGCGKSTSIQLLERFYDPDQGTVMIDGHDSKKVNIQFLRSNIGIVSQEPVLFDCSIMDNIKYGDNTKEISVERAIAAAKQAQLHDFVMSLPEKYETNVGIQGSQLSRGEKQRIAIARAIVRDPKILLLDEATSALDTESEKTVQTALDKAREGRTCIVIAHRLSTIQNSDIIAVVSQGVVIEKGTHEKLMAQKGAYYKLVITGAPIS
In the case of B3, the Km ([2]; other: ratBsep-Sf9 CTRL) is reported as 2.203 µM.
